Data published in US20250011368A1, “DLL3 TARGETING PEPTIDES AND CONSTRUCTS THEREOF” (MARIANA ONCOLOGY INC., priority 2023, published 2025).
Numbered stars: 1 amine (or outer) side, 2 acyl side, 3 side chain; on linkers, the order of the positions; unused ones are H or OH. Bridge positions count the residues as written; N and C are the ends. Square brackets hold non-standard residues; d marks the D form. * marks the point of attachment. Ala(piperidin-4-yl) = O=C([C@H](CC1CCN([*:3])CC1)N[*:1])[*:2]; DOTA = O=C(O)CN1CCN(CC(=O)O)CCN(CC(=O)*)CCN(CC(=O)O)CC1; Trp(5-F) = N[C@@H](Cc1c[nH]c2ccc(F)cc12)C(=O)O; Trp(7-aza) = N[C@@H](Cc1c[nH]c2ncccc12)C(=O)O; Pro(trans-4-F) = O=C(O)[C@@H]1C[C@@H](F)CN1; 2Nal = N[C@@H](Cc1ccc2ccccc2c1)C(=O)O; Cha = N[C@@H](CC1CCCCC1)C(=O)O

T1: DLL3 on SHP-77 cells (human, UniProt Q9NYJ7 27-618)
T1 construct: SHP-77 cells are human-derived, non-engineered SCLC cells
T1 sequence: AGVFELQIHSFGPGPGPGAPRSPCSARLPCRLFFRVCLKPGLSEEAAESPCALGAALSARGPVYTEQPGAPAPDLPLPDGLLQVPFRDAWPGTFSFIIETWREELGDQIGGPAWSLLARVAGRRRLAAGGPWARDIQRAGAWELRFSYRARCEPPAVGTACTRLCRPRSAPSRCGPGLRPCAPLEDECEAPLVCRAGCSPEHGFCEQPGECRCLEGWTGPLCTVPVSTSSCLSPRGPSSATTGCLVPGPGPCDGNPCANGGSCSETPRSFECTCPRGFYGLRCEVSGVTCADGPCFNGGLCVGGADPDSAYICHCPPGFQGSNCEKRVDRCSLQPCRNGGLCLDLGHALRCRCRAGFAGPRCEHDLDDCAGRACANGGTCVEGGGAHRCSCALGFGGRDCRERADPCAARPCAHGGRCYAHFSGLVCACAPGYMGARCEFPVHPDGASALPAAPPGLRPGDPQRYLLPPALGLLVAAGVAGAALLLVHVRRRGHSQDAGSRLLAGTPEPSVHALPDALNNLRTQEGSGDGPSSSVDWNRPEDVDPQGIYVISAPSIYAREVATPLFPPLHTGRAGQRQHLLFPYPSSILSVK


What was measured:
[1] = target: Biotinylated human DLL3 (Delta Like Canonical Notch Ligand 3) (human) (UniProt Q9NYJ7); test: SPR; letter grade, key in paragraph 614
[2] = target: DLL3 on CT26.DLL3 cells (Homo sapiens (Human)) (UniProt Q9NYJ7); test: 177Lu-peptide bound to CT26.DLL3 cells, gamma counting; letter grade, key in paragraph 629
DLL3 on SHP-77 cells = target: T1, DLL3 on SHP-77 cells; test: 177Lu-peptide bound to SHP-77 cells, gamma counting; letter grade, key in paragraph 629
Method: The study was conducted using SHP-77, CT26.WT, and CT26.DLL3 cells (Table 7) Adherent cell studies: The cells were cultured in appropriate culture media (20 mL) in tissue culture treated T150 flasks at 37° C. and 5% CO2. Adherent cells were detached (60-70% confluent) using 5 mL Versene at 37° C. for 3 minutes. After confirming the viability using countess and count of detached cells using Trypan blue, the cells were centrifuged at 4° C. for 5 minutes (1,000 rpm). The cell pellet obtained was washed once with PBS and resuspended in 1% PBSA to obtain the desired cell concentration (5-25 million cells/mL).
Total uptake: Cells were incubated with 300 μL (0.8 μCi) of the incubation buffer (containing radiolabeled peptide [¹⁷⁷Lu] Lu-test peptide) for 1 hour at 37° C. (Table 8). Post incubation, the cells were pelleted and washed 2 times using cold PBS+1% BSA. The supernatant and washes were combined and counted together as “unbound fraction” in a gamma counter. The cells were then resuspended in 300 μL of 1% PBS+1% BSA and counted in the gamma counter as “bound fraction”.

Kd [1]	% Binding [2]	% Binding (DLL3 on SHP-77 cells)	Binder
< 1 nM	–	–	Ac-[Trp(5-F)]T[Cha]CNN[2Nal]HDC[Trp(7-aza)][Pro(trans-4-F)][dK](DOTA)-NH2 (disulfide 4-10) [Cpd No. 245]
–	< 25%	< 25%	Ac-WTIC[Ala(piperidin-4-yl)]N[2Nal]KDCWP[dK](DOTA)-NH2 (disulfide 4-10; not fully specified (residue 8); also: 177Lu chelated in DOTA) [[177Lu]Lu-labelled Cpd No. 326]
